For 97 substances, median enrichment results are on record in the supplement of paper PMC11502859.
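Note: lentiviral eGFP-IRES-mCherry reporter pool sorted by FACS 96 h post-transduction, gated on mCherry-high cells, Illumina read counts normalized per million, median across four biological replicates.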

Chain of ZNF28 (chain, as listed by the source): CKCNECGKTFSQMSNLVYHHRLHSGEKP

This data set concerns HEK293T. The data set can be described thus: median enrichment of reporter reads in eGFP-reduced (low/intermediate) vs eGFP-high sorted cells (eGFP-extension fusion abundance) (ratio); higher = stronger loss of eGFP-fusion protein abundance (more destabilising extension).
As to “LVRGRGGAGTYLPESWRQNEALSIPGILLLLRADARPRASRDGVGEVLPTPLSSFPSSTKFPPALTE [SELENOM]”, the median enrichment came to 4.2.
To “CEQQMELWERGEQWGYRESSSALPLGQPHLPAVSPGHFSTSQVEVLQGPAATCIRRTSFSA [SPATA19]” belongs 2.8; to RILDQ [SH3KBP1], 1.07; to “RQTSQSSQPGLHPPWLPPAHMAPSTGLQPGAREL [HOOK2]”, 11.1.
Regarding SWRRPMCIFF [FRAS1], the median enrichment was found to be 9.68.
The figure for SLCFV [E2F3] is 2.42.
To QRLAPACTPAPAAGSPQSQPFGTVLTL [ABCG4] belongs 28.4.
Turning to “EFILERNSTNVKNVTKLLSISLTLLHIRKFILEKNPTDVKNVAKPLSTPLNLLHIRDFILERNPTDVNNVVKLFTYPHTLLHI [ZNF626]”, the median enrichment is 2.95.
The figure for KARFLAVQFLLKVPLFPKSNY [HBB] is 5.47.
Consider “YPTVGPGWAGRSWCVTGCPGRHVLALTVPGLSLPAAAIQEIVATVTLTSSAWFLPLPSGVDKGPLIIFSFVFL [DVL2]”, for which the median enrichment stood at 7.88.
With “IPVPEHQIPRQLMRLAQCVTEAPGSQQSRAYSAHQAEQATGRDDASGQGSAGDRDYRPAVSGPLQRLPTQGLVGVKHDDNTYT [CCDC137]”, the median enrichment amounted to 0.864.
For the substance “RDALAMAQEKPARKNQTDFHTKEEASIFFFLFFIGVVTKPFRLLLFKI [QRICH1]”, the median enrichment is 33.
With KFLSF [FNBP4], the median enrichment was determined as 1.62.
Take “TPAPGLGRELTRTGCSQKAGPSLSPKPLLDLWRSCRLDREAVPLSSPSPSRASPWSFRSSFWGLFQVRRMEEGGQATQHPPTP [FOXN4]”: the median enrichment was found to be 5.36.
To IIIIIIIIII [Ile10] belongs 6.67; to QRCEGIGETLGWLVMVSIAGHQKLDS [B4GALNT2], 4.77.
Consider YSPQAD [YAP1], for which the median enrichment amounted to 0.413.
Regarding “YLTLHLSSGCQGRRRSQQAPLFCSLSPEAEHMFSEKLLLRTF [RAF1]”, the median enrichment is 6.79.
The figure for “CMNEWVCWVGEGPGEGSGTEGMPGSLLPTASTDQQGLGQGGHPGGRGRLPPCLPAGGPRRRAGRVHVCGCPGDPGCLPCLPRP [TMEM91]” is 4.17; for “YGFSPFGDHLSVSPTHYPICPPPQLGPRGPTLHFWGVTDFVHGFKVYFYGLVIAEFLFWGEGKGASPLLLALRPRRLLCAANC [TSPYL2]” it is 5.92; for “DLASKKSCSVPCVLSFKGIFRINSDLEDSSVLQRLAFIFIVIMEMLSFILSYIRKKGVMQLISISLGNALVLFSSFLVPVTCL [CREB5]” it is 14.
With “EFFLELKHPRMPLHVFHSPHLQTSLLFLTRPESKLPSLGNSGEGVSCTTYHTPSHPVSDFGMDSGKLGPSLNRVMYLNVCYFQ [HSPA1L]”, the median enrichment is 5.31.
The figure for “RQSWCCRPIGRSWKASGCVPAMSWHWQSWRRRRANPRAQRTLRKPAGAESCVGHPTRHPSSLRRPVGRQGSRGFALLLSSRVM [RAB15]” is 3.13; for SERQEVEWRR [STAMBPL1] it is 0.37; for LRRGGKREKMERGAGNGGERTSKETEMKT [ZSWIM9] it is 1.53.
To “VSHAYAHAQPPSGSLESRADTHSHTHCLAKNTPCLPCHSPHSHSLSPDPCLSLDCRGTTHLFGIQGPQPTVPSPINCSRAPHK [FOXP3]” belongs 2.58; to “RWCWGLGRGGELGCQNSMDMFLWMEGRAFVTFCTYSFCGCFDKGMARELVSIISFILFWL [BCO1]”, 16; to YRKVSVSPNPHSNEF [GPR22], 41.8.
CVAGVEVLIEYDRRMTITLSAQCG [OR10H2]: the median enrichment amounted to 6.41.
On to “PPTTPHQATPAASAFLGAERQPRPPVPSPPSHHRSSAPGRTVWPLPVPAMGSGWTPWAPPIAKPGRQLSLVPASGQPRVSPAS [CAPN1]”, for which the median enrichment came to 6.04.
To REAGLPVLLPQGPLWLFTNKDPFVK [BCL7C] belongs 6.88; to “KILNLVCRPSRGIKRLALVVKNKADSQTRSDFCPCSSFDVLSVALFLIASSTCKMLFTFCLG [DAB2]”, 18.3; to “CGWPRAVRTMKPGQRPGASPAALPTRHPPASPLGAGAHPQHPHLLINISTPGCST [COPE]”, 5.98.
To RCFRRLFFSSRSCHLIILH [COMMD10] belongs 7.76; to IIIIII [Ile06], 8.61; to LIFLI [MAP2], 6.91.
To “SAMVSRAPHTRVYTRTMWYVARPGPGVRLGQPQLSLPLLLIQGVTRHLSLCYFWPQQEPVLGYFCPCSSQPNSGLAHPSPPPK [KCNJ11]” belongs 5.63; to SVLPAHLGLVLALPRPL [LRSAM1], 14.6; to YYYYYY [Tyr06], 2.81.
On to KKKEKKAKKKK [IQCA1], for which the median enrichment was determined as 0.903.
For the substance WQLPGDSRLSDSLQEKTVRPPFGPH [SYCE2], the median enrichment is 0.972.
As to QAAVAPGDVCFIVPFFLLV [CCNB2], the median enrichment came to 8.22.
On to HHHHHHHHHH [His10], for which the median enrichment amounted to 0.464.
The figure for SSSSS [Ser05] is 0.298; for LRLIIYQEC [PKIB] it is 6.92.
To YRNSNPGVPV [INPP1] belongs 0.415; to GEKSYKCKECGKPLDDPQTLMNMRKFIL [ZNF141], 6.09; to RSGLRRRRHRGE [Degron APPBP2], 6.28.
In the case of WGWKGPEG [SLC35B2], the median enrichment came out at 1.98.
For the substance “CSLHLGGGSLGKSTQTCTTVQQQGSLLPAVPPPPVYTT [SEZ6]”, the median enrichment came out at 19.3.
Take WQRRS [GIMAP1]: the median enrichment stood at 0.693.
For the substance YVHGLSLYPTALLCDSLMKLVTFTSQNFG [KDM4D], the median enrichment amounted to 7.32.
As for LTGLPTWLPT [AANAT], the median enrichment turned out to be 1.93.
For the substance CLGPGRATGSSQAAARMLISKRCWSLPS [ZBTB39], the median enrichment was determined as 30.1.
On to SLYKKVGTMAAG [Degron KLHDC3], for which the median enrichment turned out to be 7.34.
The figure for SGNRDAFPCSSLQPPLPYKIWSNS [ADH1B] is 2.16; for SGEMCVTINSKMGKPPSPCI [AK3] it is 0.494; for YKKEKKAKKKK [IQCA1] it is 0.422.
The figure for “YGSAKSLWDWKSGPGLPDRQPEDLPSTMHHGRGRSMKN [SLC39A14]” is 0.591; for RSC [DCK] it is 0.415; for WLVAIFQHSSCIL [LVRN] it is 13.3.
On to “YICLASPPSVFSTQRRREPAVPCRREEGLLDPRLSPSALRTPCPDSLLMVGPLCSSLPVGSLSSLTWIRFGFSTSLPQRKDYS [KRT13]”, for which the median enrichment was 6.15.
For YRNLENYTCFSEIITEYT [ABCD3], the median enrichment was 11.4.
The figure for “ESFHMIFCHIKHIVCLTVYRILKCSGCKTRDYLYAQNSYIFINEFNILFILVRAGQPFWVTQLIYQLIQIIEYIHNQADTS [PLS1]” is 11.2.
Turning to “WWHELLASLDGQSKKKLVYFVQICHKLKAVTGEKD [PIWIL4]”, the median enrichment was found to be 22.9.
To WLYESFCHKVPKRRGMGRVPQHVVTA [DSN1] belongs 11; to KRL [CYP17A1], 0.493.
For YKRIS [KCNN2], the median enrichment came to 1.05.
To “LTFQDEWFILSNLLLTEQSSEPFNFKLHQLCAEPWCKVLSHSFFLSVEFGAIVSGT [ATAD2B]” belongs 6.97; to YGDFPVQ [GPALPP1], 0.42.
On to RDCACI [CPSF3], for which the median enrichment was found to be 0.439.
As for YWVFGLTGARMDLQRQL [GPR149], the median enrichment is 5.42.
Take WFFCFNKQQ [TMEM31]: the median enrichment was 6.9.
The figure for QQQQ [Gln04] is 0.501; for LDVQDL [ZMPSTE24] it is 0.209; for “REVYLKKKSETDTSNPAVTTTPTTYVHMTNNFQVGFS [KCNH1]” it is 4.02.
As to SEEQPSFVPVVFIKYPLHP [WDR54], the median enrichment was 6.65.
For the substance “LPRPQPGPRTSGHRWHQPLLQDHQSGAPRTLACVP [GSG1L]”, the median enrichment was found to be 17.3.
To “YKCGKAFTKSSYCVQHLKFNTEQMQYKCNDSGRTFIILEGL [ZNF736]” belongs 22.3; to WSSVVE [TMEM17], 0.673.
In the case of “SEERMYVCFTHRHQESSPMRFFFGGGRVYTAREQKYCVS [B4GALT5]”, the median enrichment stood at 9.99.
Consider YGFHKHP [SELP], for which the median enrichment came to 1.36.
In the case of “LSRLCTQGPSLATSLPFCLTPGHPSSLPHAQLPESPLCLTSPSTNGTPEGL [CYP11B1]”, the median enrichment came to 2.58.
To QWLSGSMC [LYPD6] belongs 0.958; to “GTQSSLLAVDFPLLLEPPIKEIQRDSCRPEAEHTFMAGALRGVLDPAPGDTIHFYCFVVTRALQPVFLKNQGPLPPPLPWGET [PLOD1]”, 6.78.
On to CRVAFFLL [GTF2A1], for which the median enrichment was found to be 11.
To “LPHHTPDHQESQGCCFATHQHRFAQKLCPRLGRSYFKKTWFSWSRWLTPVIPALWEAKPDGS [COG7]” belongs 8.59.
On to LINARSHPMIILNYSHYF [LRRIQ3], for which the median enrichment amounted to 6.8.
The figure for WWWWW [Trp05] is 7.38.
In the case of “RSLRAGPSAAGSCLNTSLDMARTHRDTGQDQPCLWRQDTTIWPMAVTSCRVQSQTGNHHLRQDLPASFTFLISRALPPILCLG [SLC22A13]”, the median enrichment stood at 6.14.
The figure for “SGLELYPGPNSRTTRGLQTFLGGQAGQMAPPLGNAPSCAVERS [ELF3]” is 2.16.
The figure for “CPDHGQGLPPCAPQLSPSKCVLRASLFFTAAATFPHCLRCREGQVPASTGISDKPRAQPTRGSSLHAHTGYGDGGLQVSSARG [SSNA1]” is 7.23; for “SGTVGCVGVGIPLAPASPTLALQLGPRGISVLLSQGRSPAGDGGRGSSILPRVCLGVCEQVCKTPEAEAILPPRSLEGVCAWA [ZSWIM4]” it is 5.27.
The figure for “LRPHKHYGRSVGPQHGLPSGRPVLPEEGPACWPGACRHC [ZGPAT]” is 6.53; for ECLSIKSGFAP [NPL] it is 0.687.
Turning to ZNF28, the median enrichment came to 1.64.
To YSWANDH [SEMA4F] belongs 0.76.
